In the Immune Epitope Database (IEDB) one finds Kd data, which are given here for six sequences.

The target in assay [1] is HLA-B*07:02. In words: IEDB peptide-MHC binding, purified MHC/direct/fluorescence; filed as Kd, often an IC50 or EC50 that approximates it; ≥ and ≤ were set here for values at or beyond the usual limits of such assays.
The target in assay [2] is HLA-A*02:01. The description is as above.
Assay [3] addresses HLA-B*39:01. The description is as above. To be noted: source organism: Variola virus.
The target in assay [4] is HLA-A*26:03. The description is as above.
Assay [5] has as its target HLA-A*26:01. The assay is described as above. The conditions noted are these: source organism: Variola virus.
Assay [6] deals with HLA-A*24:03. Described as above.
The target of assay [7] is HLA-B*57:01. The assay is described as above.
For assay [8], the target named is HLA-C*15:02. The assay is described as above. The conditions noted are these: source organism: Variola major virus.
Assay [9] concerns the target HLA-A*30:01. The description is as above. The conditions noted are these: source organism: Variola virus.
Assay [10] concerns the target HLA-A*01:01. The assay is described as above.
Assay [11] addresses HLA-C*14:02. The description is as above.
Assay [12] addresses HLA-B*08:03. Described as above.
Assay [13] concerns the target HLA-A*69:01. The assay is described as above.
In assay [14] the target is HLA-B*15:09. Described as above.
Assay [15] has as its target HLA-B*58:01. The assay is described as above.
The target in assay [16] is HLA-A*31:01. In words: IEDB peptide-MHC binding, purified MHC/competitive/fluorescence; filed as Kd, often an IC50 or EC50 that approximates it; ≥ and ≤ were set here for values at or beyond the usual limits of such assays.
In assay [17] the target is HLA-B*18:01. Described as above.
Assay [18] addresses HLA-B*15:01. Described as above. The conditions noted are these: source organism: Variola major virus.
Assay [19] deals with HLA-A*11:01. The description is as above.
For assay [20], the target named is HLA-A*26:02. The description is as above.
Assay [21] concerns the target HLA-A*68:02. Described as above.
Assay [22] has as its target HLA-B*15:01. In words: IEDB peptide-MHC binding, purified MHC/direct/fluorescence; filed as Kd, often an IC50 or EC50 that approximates it; ≥ and ≤ were set here for values at or beyond the usual limits of such assays.
Assay [23] has as its target HLA-B*51:01. The assay is described as above.
The target of assay [24] is HLA-B*15:17. Described as above. To be noted: source organism: Vibrio vulnificus YJ016.
Assay [25] concerns the target HLA-A*31:01. The assay is described as above. The conditions noted are these: source organism: Vibrio vulnificus YJ016.
Assay [26] concerns the target HLA-B*08:01. The description is as above.
For assay [27], the target named is HLA-B*18:01. The description is as above. The conditions noted are these: source organism: Vibrio vulnificus YJ016.
The target in assay [28] is HLA-A*02:11. Described as above. To be noted: source organism: Vibrio vulnificus YJ016.
The target in assay [29] is HLA-A*11:01. The assay is described as above. The conditions noted are these: source organism: Vibrio vulnificus YJ016.
Assay [30] has as its target HLA-A*26:02. Described as above.
Assay [31] concerns the target HLA-A*68:02. The assay is described as above. The conditions noted are these: source organism: Vibrio vulnificus YJ016.
Assay [32] has as its target HLA-B*07:02. Description: IEDB peptide-MHC binding, purified MHC/competitive/fluorescence; filed as Kd, often an IC50 or EC50 that approximates it; ≥ and ≤ were set here for values at or beyond the usual limits of such assays. To be noted: source organism: Vibrio vulnificus YJ016.
Assay [33] deals with HLA-A*02:01. Described as above. To be noted: source organism: Vibrio vulnificus YJ016.
Assay [34] concerns the target HLA-B*39:01. Described as above. The conditions noted are these: source organism: Vibrio vulnificus YJ016.
In assay [35] the target is HLA-A*30:01. Described as above. To be noted: source organism: Vibrio vulnificus YJ016.
Assay [36] concerns the target HLA-A*02:03. Described as above. To be noted: source organism: Vibrio vulnificus YJ016.
In assay [37] the target is HLA-A*02:06. The assay is described as above. The conditions noted are these: source organism: Vibrio vulnificus YJ016.
Assay [38] deals with HLA-B*08:02. In words: IEDB peptide-MHC binding, purified MHC/direct/fluorescence; filed as Kd, often an IC50 or EC50 that approximates it; ≥ and ≤ were set here for values at or beyond the usual limits of such assays. To be noted: source organism: Influenza A virus(A/swine/Shandong/fNY/2003(H9N2)).
The target in assay [39] is HLA-A*03:01. The description is as above. To be noted: source organism: Influenza A virus (A/Swine/Italy/25823/94(H3N2)).
Assay [40] has as its target HLA-B*27:05. The assay is described as above. The conditions noted are these: source organism: Influenza A virus (A/Swine/Italy/25823/94(H3N2)).
Assay [41] has as its target HLA-B*15:17. Description: IEDB peptide-MHC binding, purified MHC/competitive/fluorescence; filed as Kd, often an IC50 or EC50 that approximates it; ≥ and ≤ were set here for values at or beyond the usual limits of such assays. The conditions noted are these: source organism: Influenza A virus H3N2.
For assay [42], the target named is HLA-B*57:01. The description is as above. The conditions noted are these: source organism: Influenza A virus H3N2.
Assay [43] has as its target HLA-B*35:01. Described as above. The conditions noted are these: source organism: Influenza A virus H3N2.
The mark [44] stands for this setting: source organism: Buffalopox virus.
Where [45] appears, read: source organism: Variola major virus.
The mark [46] stands for this setting: source organism: Yellow fever virus 17D.
Where [47] appears, read: source organism: Vibrio vulnificus YJ016.
Where [48] appears, read: source organism: Influenza A virus (A/Swine/Italy/25823/94(H3N2)).
The mark [49] stands for this setting: source organism: Influenza A virus(A/swine/Shandong/fNY/2003(H9N2)).
[50] abbreviates: source organism: Influenza A virus H3N2.
Setting [51] is: source organism: Giardia lamblia ATCC 50803.

RYPGVMYAF: the Kd was at least 20000 nM in assay [1] (setting [44]); at least 20000 nM in assay [2] (setting [44]); at least 20000 nM in assay [3]; at least 20000 nM in assay [4] (source organism: Variola virus); at least 20000 nM in [5]; 2 nM in assay [6] (setting [44]). For the same sequence, the Kd in assay [7] (setting [44]) was at least 20000 nM; in assay [8] it was at least 20000 nM; in [9], 4000 nM; in assay [10] (setting [44]), at least 20000 nM; in [11] (setting [45]), 16 nM; in assay [12] (source organism: Variola virus), at least 20000 nM. The Kd in [13] (setting [44]) was at least 20000 nM; in assay [14] (source organism: Variola virus), at least 20000 nM; in [15] (setting [44]), at least 20000 nM; in assay [16] (setting [45]), 122 nM; in assay [17] (setting [45]), 989 nM; in [18], 3620 nM. Moreover, the Kd in assay [19] (setting [45]) was 4300 nM; in [20] (setting [45]) it was 4760 nM; in assay [21] (setting [45]), at least 20000 nM.

As for SVAMCRTPF, the Kd in [22] (setting [46]) was 32 nM; in assay [23] (setting [46]) it was at least 20000 nM.

As to LLRRRPYPL, the Kd in [24] is at least 20000 nM; in assay [25], at least 20000 nM; in assay [4] (setting [47]) it was at least 20000 nM; in assay [26] (setting [47]), 3 nM; in [7] (setting [47]) it was at least 20000 nM; in assay [27] it was at least 20000 nM. The Kd in assay [28] is at most 1 nM; in [10] (setting [47]), at least 20000 nM; in assay [29], at least 20000 nM; in [13] (setting [47]), at least 20000 nM; in [30] (setting [47]) it was at least 20000 nM; in [31], at least 20000 nM. In addition, the Kd in [15] (setting [47]) is at least 20000 nM; in [32], 206 nM; in [33], 105 nM; in [34] it was at least 20000 nM; in [35], 440 nM; in assay [36] it was 2.1 nM. In assay [37], this sequence yielded a Kd of 2040 nM.

Regarding SFSFGGFTF, the dissociation constant Kd in assay [1] (setting [48]) is at least 20000 nM; in [2] (setting [48]) it was at least 20000 nM; in assay [26] (setting [49]) it was at least 20000 nM; in assay [38], at least 20000 nM; in [6] (setting [48]), at most 1 nM; in assay [22] (setting [48]) it was 37.5 nM. For the same sequence, the Kd in assay [39] is at least 20000 nM; in assay [40] it was at least 20000 nM; in [10] (setting [48]) it was at least 20000 nM; in assay [12] (setting [49]) it was at least 20000 nM; in [14] (setting [49]) it was at least 20000 nM; in assay [15] (setting [48]), 62.5 nM. The Kd is 40 nM in assay [41]; at least 20000 nM in assay [16] (setting [50]); 2360 nM in assay [42]; 200 nM in [17] (setting [50]); 285 nM in [43]; at least 20000 nM in assay [19] (setting [50]). Also, the Kd in assay [20] (setting [50]) is 1840 nM; in assay [21] (setting [50]) it was 2440 nM.

As for ATAQNRRAL, the Kd was 22.7 nM in assay [1] (setting [51]), 273 nM in assay [11] (setting [51]) and at least 20000 nM in assay [23] (setting [51]).

Turning to DTITNVTTM, the Kd in [11] (source organism: West Nile virus) is 1650 nM; in assay [30] (source organism: West Nile virus strain PTRoxo) it was at most 1 nM.
